Source: patent US20250195917A1, “SEQUENTIAL TRANSARTERIAL CHEMOEMBOLIZATION, STEREOTACTIC BODY RADIOTHERAPY, AND IMMUNOTHERAPY (START-FIT) FOR HEPATOCELLULAR CARCINOMA” (The University of Hong Kong, priority 2023, published 2025)
Like-named read-outs stand apart in the source and are kept apart here.

Assay type: in vivo
Conditions: for Dermatitis / Hepatitis / Others immune-related: Immune-related; for Amylase increased / Anemia / Hypercreatinine / Hyperglycemia / Hypokalemia / Hyponatremia / Hypothyroidism / Leukopenia / Lipase increased / Neutropenia / Thrombocytopenia: Laboratory; for Dry skin / Others (Skin) / Pruritus / Rash, acneiform / Rash, maculopapular / Rash, urticarial: Skin
Procedure: All patients underwent a single treatment of conventional TACE within 28 days of study enrolment. Conventional TACE was performed by supra-selective cannulation of all the branches supplying the tumor. The emulsion was prepared by mixing iodised oil with cisplatin (1 mg/mL) in a 1:1 ratio. A maximum of 60 mL of emulsion was injected. Preparation of the emulsion was followed by embolisation with gelfoam (gelatin granules) pellets of 1 mm diameter mixed with 40 mg of gentamicin. At 28 days (plus or minus 3 days) after the completion of TACE, stereotactic body radiotherapy was delivered to all lesions. Patients were immobilised via a vacuum foam bag (Vac-Lok™; MEDTEC, IA, USA) and active breathing control to reduce liver motion. Imaging was performed on the inhale breath-hold contrast CT. Gross tumor volume was defined as a tumor focus that was visualised by contrast imaging. The clinical target volume was defined as gross tumor volume with expansion to include the area stained with iodised oil. The individualised planning target volume margins were formulated to compensate for respiratory motion and setup errors. Cone beam CT was acquired on board before each treatment. A radiation dose of 27.5-40.0 Gy in five fractions delivered daily was allowed per protocol. The prescription isodose encompassed 95% of the planning target volume. The final dose was determined such that a maximum tumoricidal dose could be delivered to tumors while respecting the tolerance dose of the organ at risk (Table 3). The radiotherapy toxicity was assessed by CTCAE; version 4.01.
All patients underwent baseline contrast-enhanced MRI of the liver and CT of the thorax. Treatment response evaluation was assessed with MRI after cycle 4, cycle 8, and cycle 12 of avelumab and every 12 weeks thereafter (plus or minus 7 days). Radiological imaging was reported using the modified Response Evaluation Criteria in Solid Tumors (mRECIST). A CT of the thorax was done every 26 weeks or at the time of radiological or clinical evidence of disease progression according to mRECIST criteria. All patients were discussed in a multidisciplinary team board meeting of surgeons specializing in liver transplantation and liver surgery, clinical oncologists, interventional radiologists, and diagnostic radiologists. This meeting was held once every 2 weeks to decide resectability and treatment failure. All patients underwent complete tumor staging to exclude distant metastasis before surgery. A board-certified radiologist conducted an independent blinded review in addition to the investigator review. Safety assessments were documented throughout the treatment period. Adverse events were graded according to the US National Cancer Institute Common Terminology Criteria for Adverse Events (CTCAE; version 4.01). The frequency, duration, and severity of adverse events were recorded.
The primary endpoint was the percentage of patients deemed to be amenable to curative treatment after conversion therapy. Amenability for curative treatment was fulfilled when one of the following criteria was met: either a sustained complete response or sustained partial response achieved for at least 2 months and if curative treatment could be performed (based on investigator's review). […] Post-hoc analyses included radiological response according to immune RECIST, correlation of clinical outcomes with BCLC stage, albumin-bilirubin score, radiological assessment criteria, biomarkers, and median time to treatment response.

Substance: avelumab
- GGT increased (Hepatic, Grade 5): 0 (0%) number of patients (%)
- Dermatitis (Grade 1-2): 2 (6%) number of patients (%)
- Hepatitis (Grade 1-2): 2 (6%) number of patients (%)
- Others immune-related (Grade 1-2): 5 (15%) number of patients (%)
- Dermatitis (Grade 3): 2 (6%) number of patients (%)
- Hepatitis (Grade 3): 3 (9%) number of patients (%)
- Others immune-related (Grade 3): 0 (0%) number of patients (%)
- Dermatitis (Grade 4): 0 (0%) number of patients (%)
- Hepatitis (Grade 4): 0 (0%) number of patients (%)
- Others immune-related (Grade 4): 0 (0%) number of patients (%)
- Dermatitis (Grade 5): 0 (0%) number of patients (%)
- Hepatitis (Grade 5): 0 (0%) number of patients (%)
- Others immune-related (Grade 5): 0 (0%) number of patients (%)
- Amylase increased (Grade 1-2): 0 (0%) number of patients (%)
- Anemia (Grade 1-2): 5 (15%) number of patients (%)
- Hypercreatinine (Grade 1-2): 3 (9%) number of patients (%)
- Hyperglycemia (Grade 1-2): 1 (3%) number of patients (%)
- Hypokalemia (Grade 1-2): 6 (18%) number of patients (%)
- Hyponatremia (Grade 1-2): 4 (12%) number of patients (%)
- Hypothyroidism (Grade 1-2): 5 (15%) number of patients (%)
- Leukopenia (Grade 1-2): 6 (18%) number of patients (%)
- Lipase increased (Grade 1-2): 0 (0%) number of patients (%)
- Neutropenia (Grade 1-2): 1 (3%) number of patients (%)
- Thrombocytopenia (Grade 1-2): 4 (12%) number of patients (%)
- Hypothyroidism (Grade 1-2, first listing): 0 (0%) number of patients (%)
- Amylase increased (Grade 3): 0 (0%) number of patients (%)
- Anemia (Grade 3): 0 (0%) number of patients (%)
- Hypercreatinine (Grade 3): 0 (0%) number of patients (%)
- Hyperglycemia (Grade 3): 0 (0%) number of patients (%)
- Hypokalemia (Grade 3): 0 (0%) number of patients (%)
- Hyponatremia (Grade 3): 0 (0%) number of patients (%)
- Hypothyroidism (Grade 3): 0 (0%) number of patients (%)
- Leukopenia (Grade 3): 0 (0%) number of patients (%)
- Lipase increased (Grade 3): 0 (0%) number of patients (%)
- Neutropenia (Grade 3): 0 (0%) number of patients (%)
- Thrombocytopenia (Grade 3): 0 (0%) number of patients (%)
- Hypothyroidism (Grade 3, first listing): 0 (0%) number of patients (%)
- Amylase increased (Grade 4): 0 (0%) number of patients (%)
- Anemia (Grade 4): 0 (0%) number of patients (%)
- Hypercreatinine (Grade 4): 0 (0%) number of patients (%)
- Hyperglycemia (Grade 4): 0 (0%) number of patients (%)
- Hypokalemia (Grade 4): 0 (0%) number of patients (%)
- Hyponatremia (Grade 4): 0 (0%) number of patients (%)
- Hypothyroidism (Grade 4): 0 (0%) number of patients (%)
- Leukopenia (Grade 4): 0 (0%) number of patients (%)
- Lipase increased (Grade 4): 0 (0%) number of patients (%)
- Neutropenia (Grade 4): 0 (0%) number of patients (%)
- Thrombocytopenia (Grade 4): 0 (0%) number of patients (%)
- Hypothyroidism (Grade 4, first listing): 0 (0%) number of patients (%)
- Amylase increased (Grade 5): 0 (0%) number of patients (%)
- Anemia (Grade 5): 0 (0%) number of patients (%)
- Hypercreatinine (Grade 5): 0 (0%) number of patients (%)
- Hyperglycemia (Grade 5): 0 (0%) number of patients (%)
- Hypokalemia (Grade 5): 0 (0%) number of patients (%)
- Hyponatremia (Grade 5): 0 (0%) number of patients (%)
- Hypothyroidism (Grade 5): 0 (0%) number of patients (%)
- Leukopenia (Grade 5): 0 (0%) number of patients (%)
- Lipase increased (Grade 5): 0 (0%) number of patients (%)
- Neutropenia (Grade 5): 0 (0%) number of patients (%)
- Thrombocytopenia (Grade 5): 0 (0%) number of patients (%)
- Hypothyroidism (Grade 5, first listing): 0 (0%) number of patients (%)
- Dry skin (Grade 1-2): 6 (9%) number of patients (%)
- Others (Skin) (Grade 1-2): 0 (0%) number of patients (%)
- Pruritus (Grade 1-2): 8 (24%) number of patients (%)
- Rash, acneiform (Grade 1-2): 0 (0%) number of patients (%)
- Rash, maculopapular (Grade 1-2): 6 (9%) number of patients (%)
- Rash, urticarial (Grade 1-2): 2 (6%) number of patients (%)
- Dry skin (Grade 3): 0 (0%) number of patients (%)
- Others (Skin) (Grade 3): 0 (0%) number of patients (%)
- Pruritus (Grade 3): 1 (3%) number of patients (%)
- Rash, acneiform (Grade 3): 0 (0%) number of patients (%)
- Rash, maculopapular (Grade 3): 1 (3%) number of patients (%)
- Rash, urticarial (Grade 3): 1 (3%) number of patients (%)
- Dry skin (Grade 4): 0 (0%) number of patients (%)
- Others (Skin) (Grade 4): 0 (0%) number of patients (%)
- Pruritus (Grade 4): 0 (0%) number of patients (%)
- Rash, acneiform (Grade 4): 0 (0%) number of patients (%)
- Rash, maculopapular (Grade 4): 0 (0%) number of patients (%)
- Rash, urticarial (Grade 4): 0 (0%) number of patients (%)
- Dry skin (Grade 5): 0 (0%) number of patients (%)
- Others (Skin) (Grade 5): 0 (0%) number of patients (%)
- Pruritus (Grade 5): 0 (0%) number of patients (%)
- Rash, acneiform (Grade 5): 0 (0%) number of patients (%)
- Rash, maculopapular (Grade 5): 0 (0%) number of patients (%)
- Rash, urticarial (Grade 5): 0 (0%) number of patients (%)
- Permanent discontinuation due to immune-related adverse events (avelumab 10 mg/kg every 2 weeks after TACE and SBRT): two
- Median duration of dose interruption (seven patients with interruption): 4 weeks
